Experimental data: the supplement of paper PMC12042874
± gives the uncertainty stated by the source.

Experiment: amyloid nucleation score (Sup35N fusion, yeast selection) (log enrichment); library NNK2; higher = more nucleation; inactive = no reads after selection
Summary of the method: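 Sup35N fusions to peptides of 20 random codons were expressed in psi-negative yeast, induced 24 hours with 100 μM copper sulfate, and grown 7 days at 30°C on medium lacking adenine and uracil. Input and output plasmid inserts were sequenced by Illumina. The nucleation score is the DiMSum log enrichment of output over input reads, centred on the mode score of non-aggregating sequences. Sequences with under 100 input reads were excluded.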

| Substance | amyloid nucleation score |
| --- | --- |
| ASVKSILVYGGCTKWFFPHF | 4.11 ± 0.062 |
| ASWKFMFNCSKISRRPNTIT | 0.148 ± 1 |
| ASYRKWNTCPIMYEVSCRYY | inactive |
| ATCSPSVSRVLGLCSWECFR | -0.382 ± 0.76 |
| ATIWCCRVKGQVGSFNL | 0.868 ± 0.14 |
| ATNNPVMNFAGLAKECFAYM | -0.106 ± 0.79 |
| ATVFF | 0.768 ± 0.28 |
| ATVSDYKVHGSDLFSFTVND | 8.299 ± 0.058 |
| ATYINLVINSKSARLFLICG | 4.732 ± 0.036 |
| AVAVACLDH | 0.713 ± 0.58 |
| AVCITFLSSCAIFFDSPVRV | 6.409 ± 0.047 |
| AVCWYNVQVRSSRNLYGQPK | 0.221 ± 0.5 |
| AVFNGFKNNSLV | -0.146 ± 1 |
| AVGNNN | -1.11 ± 0.74 |
| AVIDIIKRTSCTCDESCCIR | 0.415 ± 0.31 |
| AVIMRFVYYDAYWGLWMVKE | 0.228 ± 1 |
| AVLSITMKGVVWKGLSNLCC | inactive |
| AVRYSLFF | 5.09 ± 0.054 |
| AVSFRFIGVYRGM | 3.95 ± 0.12 |
| AWACYSECQDIRGNYSEVVL | -0.671 ± 0.48 |
| AWDRDVNDENLVSIYMCRKL | -0.233 ± 0.32 |
| AWGHIHAVPMYNALLYNSHD | 0.695 ± 0.66 |

| Substance | amyloid nucleation score |
| --- | --- |
| AWLLTLPKLYSLEC | -0.434 ± 0.6 |
| AWSVIEGFQHREAFVTYRGQ | 3.7 ± 0.063 |
| AYCCINLHYNLKVS | 0.665 ± 0.65 |
| AYDFGVA | -0.263 ± 1.1 |
| AYFKYCSSLRGSIRDNRADW | 0.113 ± 0.63 |
| AYHDYLSRGGTHVVVCYYLS | inactive |
| AYRSDCIRHGGPFAGYNICI | 0.044 ± 1.1 |
| AYSDNTFRQCSISVL | 0.218 ± 0.8 |
| CAGPPLLAKVGWIIMYSLVV | 0.258 ± 0.55 |
| CAIAWRMPLDRPPLKE | -0.627 ± 0.76 |
| CARNTIAWVSNGMEFGSTGG | -0.582 ± 0.76 |
| CAVDLFGVAIRALMFRSWGC | inactive |
| CAYGLFVNVFSVDADLRYKY | 7.544 ± 0.022 |
| CCMCCNDYCRPCFREGVWIG | -0.121 ± 1.1 |
| CCSFNLISLYSKVRARSELP | 8.765 ± 0.029 |
| CCVEPVVRDVEVKIRSVVMN | 0.123 ± 0.56 |
| CCVMVELLVYFPM | 1.88 ± 0.098 |
| CDANM | 0.785 ± 0.51 |
| CDFMYRLMSTYTHTFLVSLR | 1.41 ± 0.14 |
| CDGTLCWKPGWYGDQKFERR | 1.32 ± 0.36 |
| CDLIASQSVIAIVNIMIRHV | 6.63 ± 0.062 |
| CDSAAFRPYLFSAENLSLYK | 0.53 ± 0.66 |

| Substance | amyloid nucleation score |
| --- | --- |
| CDSDSLGVTYVDDDCGYNYC | -1.03 ± 0.55 |
| CDSKVENIWVDLNEMYFFCN | 2.54 ± 0.17 |
| CDVNYL | -0.681 ± 0.3 |
| CEHDCSPTYDGLSYASFVRE | 0.219 ± 0.5 |
| CFAGLFLLSSEFFYRLTSRR | 1.58 ± 0.12 |
| CFCLPSNSNI | 1.19 ± 0.09 |
| CFCMINTCYSVINSFTYYGK | 8.047 ± 0.066 |
| CFDCNIRGSVWKVYISLIVG | inactive |
| CFEVFRFRRNRSLISPYQRM | 0.612 ± 0.62 |
| CFGISSS | -1.12 ± 0.36 |
| CFGRMVTSNSSDLRYSNDRL | 1.56 ± 0.097 |
| CFHVITVNPGLQ | 1.37 ± 0.39 |
| CFLTNRTRNSYRPSGKPLDM | -0.702 ± 0.61 |
| CFNTTNEMRSTSSWLRYGSV | 3.83 ± 0.054 |
| CFPPFLC | 0.13 ± 1.1 |
| CFRFLGREECKLTFGSDEMI | inactive |
| CFTCHTIYCVYSKFKRDMDR | 3.56 ± 0.047 |
| CFTGFRVIMVNICEWCVVVS | 3.9 ± 0.098 |
| CFVYLDLLYMEMMYHRQVAY | -0.552 ± 0.34 |
| CGATQHSGTQVDLKLGFI | -0.321 ± 1.1 |
| CGNSHMYMNAGDFT | -0.293 ± 0.79 |
| CGVASSHFDGLLNR | 2.58 ± 0.12 |

| Substance | amyloid nucleation score |
| --- | --- |
| CGVPNYQLVVEWMMTNRVGN | -0.888 ± 0.78 |
| CGWGYLTCPSRTVVWARAGV | 1.35 ± 0.25 |
| CGYLRDTWWFFCVTLRNRGV | 1.12 ± 0.27 |
| CHGRGISYQLLQNRNQQP | 0.08 ± 0.79 |
| CHIGN | inactive |
| CHLFVFLGLPRQWVKSRPYA | 0.18 ± 0.22 |
| CHSNKSCRSHIEEI | -0.377 ± 0.5 |
| CHSRLLEYGENCNRIEYCLC | -0.459 ± 0.27 |
| CIDVSLFNGHACWIVCFSPV | 5.48 ± 0.045 |
| CIELLYEYAIDLQAWVLLER | 0.389 ± 0.66 |
| CIEMFFETVFTKGLSRYACW | -0.55 ± 0.3 |
| CIFFLVV | 4.79 ± 0.071 |
| CIGSLNVAVW | 0.152 ± 0.21 |
| CIGSRRGQSTSSVYRWSHYL | 0.192 ± 0.46 |
| CIINNKIQVAVKNDYLDHRE | 4.69 ± 0.1 |
| CILLTGPSYSLKLAYSDCLS | -1.15 ± 0.43 |
| CISSMVALMGGPWNEMLGTW | 0.767 ± 0.74 |
| CISTYN | -0.822 ± 0.44 |
| CIYMSRSRRKCGCSLGTRYV | -0.393 ± 1 |
